Assay results: paper PMC5868266
pKd: −log10 of the molar value.

Legend:
[1] = molecular target: equine C3b (horse (endogenous in equine plasma)); assay: SPR; Biacore T200; biotinylated C3b captured on a neutravidin-coupled CMD-200 chip (eqC3b 3,000 RU, human C3b 4,200 RU); SCIN injected 2 min at 2.5-2,500 nM, dissociation 3 min; 25 °C; 20 mM HEPES pH 7.3, 140 mM NaCl, 0.005% Tween 20; 30 μl/min; triplicate; 1:1 kinetic model (KD = kd/ka)
human C3b (human) [2] = molecular target: human C3b (human) (UniProt P01024); assay: as above
[3] = molecular target: equine alternative pathway C3 convertase (eqC3bBb) (horse (endogenous in equine plasma))
[4] = molecular target: equine C3b (horse (endogenous in equine plasma)); assay: SPR; same injections as a1, steady-state binding model; for SCIN-A on eqC3b the concentrations were subsaturating, so the fit used a constant Rmax based on the eqSCIN/eqC3b interaction
human C3b (human) [5] = molecular target: human C3b (human) (UniProt P01024); assay: as above
human C3b (human) [6] = molecular target: human C3b (human) (UniProt P01024); assay: SPR

equine staphylococcal complement inhibitor (eqSCIN) (natural protein)
pKd [1]: 7.21 | koff [1]: 0.11 s⁻¹ | kon [1]: 1.8e+06 M⁻¹ s⁻¹ | pKd (human C3b (human) [2]): 6.64 | koff (human C3b (human) [2]): 0.13 s⁻¹ | kon (human C3b (human) [2]): 550000 M⁻¹ s⁻¹ | inhibition of eqC3 cleavage (α-chain to α′) by fluid-phase eqC3bBb, eqSCIN 0.04-10 μM, densitometry of reducing SDS-PAGE [3]: 0.61 µM | pKd [4]: 6.66 | pKd (human C3b (human) [5]): 6.52

staphylococcal complement inhibitor SCIN-A (natural protein)
pKd [4]: 4.54 | pKd (human C3b (human) [5]): 6.85 | pKd (human C3b (human) [6]): 6.85 | koff (human C3b (human) [6]): 0.092 s⁻¹ | kon (human C3b (human) [6]): 630000 M⁻¹ s⁻¹
